According to paper PMC3795062:

Biological target: endogenous β-catenin of HEK293 cells (human (endogenous in HEK293)) (UniProt P35222)
Chain of UniProt P35222 (P35222 whole entry): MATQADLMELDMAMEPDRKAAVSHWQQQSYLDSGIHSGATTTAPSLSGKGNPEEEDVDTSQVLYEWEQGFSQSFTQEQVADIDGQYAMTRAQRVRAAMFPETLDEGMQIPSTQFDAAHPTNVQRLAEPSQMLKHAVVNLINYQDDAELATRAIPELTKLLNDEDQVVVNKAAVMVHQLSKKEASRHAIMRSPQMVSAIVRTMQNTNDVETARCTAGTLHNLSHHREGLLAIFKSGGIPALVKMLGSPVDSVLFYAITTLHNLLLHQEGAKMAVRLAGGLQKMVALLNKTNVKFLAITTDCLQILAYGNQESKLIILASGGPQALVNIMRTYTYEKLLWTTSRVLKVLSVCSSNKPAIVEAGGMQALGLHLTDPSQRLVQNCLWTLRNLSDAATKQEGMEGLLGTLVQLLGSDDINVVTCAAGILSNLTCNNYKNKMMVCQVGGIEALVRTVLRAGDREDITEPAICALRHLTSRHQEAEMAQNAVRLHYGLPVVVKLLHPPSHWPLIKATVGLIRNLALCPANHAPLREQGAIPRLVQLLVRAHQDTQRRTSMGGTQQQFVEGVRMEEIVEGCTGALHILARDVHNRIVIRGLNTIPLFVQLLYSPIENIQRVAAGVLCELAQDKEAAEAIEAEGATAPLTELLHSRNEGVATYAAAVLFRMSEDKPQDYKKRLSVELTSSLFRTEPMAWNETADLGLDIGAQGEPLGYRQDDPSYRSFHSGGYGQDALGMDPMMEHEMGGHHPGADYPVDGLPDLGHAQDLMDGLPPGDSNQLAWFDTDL

WT-Nef expressed in HEK293 cells (natural protein)
inhibition of the TopFlash (TCF-luciferase) reporter, TopFlash/FopFlash ratio, HEK293 cells with Wnt-conditioned media, 50 ng Nef plasmid: 40%
